Source: patent publication US20240084027A1 (BEIJING MABWORKS, published 2024)
Like-named read-outs stand apart in the source and are kept apart here.

B1: MBS307-6 (bispecific antibody, human IgG1, kappa, L234A L235A)
heavy 1: QVQLQESGPGLVKPSDTLSLTCAVSGYSITTNYYWNWIRQPPGKGLEWMGYIKYDGSNNYNPSLKNRITISVDTSKNQFSLKLSSVTAVDTAVYYCARLDYWGQGTLVTVSSASTKGPSVFPLAPSSKSTSGGTAALGCLVKDYFPEPVTVSWNSGALTSGVHTFPAVLQSSGLYSLSSVVTVPSSSLGTQTYICNVNHKPSNTKVDKKVEPKSCDKTHTCPPCPAPEAAGGPSVFLFPPKPKDTLMISRTPEVTCVVVDVSHEDPEVKFNWYVDGVEVHNAKTKPREEQYNSTYRVVSVLTVLHQDWLNGKEYKCKVSNKALPAPIEKTISKAKGQPREPQVYTLPPSREEMTKNQVSLWCLVKGFYPSDIAVEWESNGQPENNYKTTPPVLDSDGSFFLYSKLTVDKSRWQQGNVFSCSVMHEALHNHYTQKSLSLSPGK
heavy 2: QVQLQESGPGLVKPSDTLSLTCAVSGYSITTNYYWNWIRQPPGKGLEWMGYIKYDGSNNYNPSLKNRITISVDTSKNQFSLKLSSVTAVDTAVYYCARLDYWGQGTLVTVSSASTKGPSVFPLAPSSKSTSGGTAALGCLVKDYFPEPVTVSWNSGALTSGVHTFPAVLQSSGLYSLSSVVTVPSSSLGTQTYICNVNHKPSNTKVDKKVEPKSCDKTHTCPPCPAPEAAGGPSVFLFPPKPKDTLMISRTPEVTCVVVDVSHEDPEVKFNWYVDGVEVHNAKTKPREEQYNSTYRVVSVLTVLHQDWLNGKEYKCKVSNKALPAPIEKTISKAKGQPREPQVYTLPPSREEMTKNQVSLSCAVKGFYPSDIAVEWESNGQPENNYKTTPPVLDSDGSFFLVSKLTVDKSRWQQGNVFSCSVMHEALHNHYTQKSLSLSPGSGGGGSGGGGSQVQLQESGPGLVKPSQTLSLTCTVSGGSITSDYWNWIRQHPGNKLEYMGYISYTGSTYYNPSLKSRISITRDTSKNQFSLKLSSVTTADTAVYYCARYRDWDVRAMDYWGQGTTVTVSSGGGGSGGGGSGGGGSGGGGSDIVMTQSPDSLAVSLGEKVTMNCKSSQSLLISGNQKNFLTWYQQKPGQPPKLLIYWASTRESGVPDRFSGSGSGTDFTLTISSLQAEDEAVYYCQNDFGFPFTFGQGTKLTAK
light: DVVLTQSPLSLPVTLGQPASISCRSSQSLENSNGNTFLNWFQQRPGQSPRLLIYKVSNRFSGVPDRFSGSGSGTDFTLKISRVEAEDVGVYYCLQVTHVPFTFGQGTKLEIKRTVAAPSVFIFPPSDEQLKSGTASVVCLLNNFYPREAKVQWKVDNALQSGNSQESVTEQDSKDSTYSLSSTLTLSKADYEKHKVYACEVTHQGLSSPVTKSFNRGEC
notes: Asymmetric: anti-CD40 antibody, knob chain without scFv, hole chain with the anti-PD-L1 scFv of 56E5VH5VL4; also called MBS307-6-1 + MBS307-6-2
B2: MBS307-10 (bispecific antibody, human IgG1, kappa, L234A L235A)
heavy 1: B1 heavy 1
heavy 2: QVQLQESGPGLVKPSDTLSLTCAVSGYSITTNYYWNWIRQPPGKGLEWMGYIKYDGSNNYNPSLKNRITISVDTSKNQFSLKLSSVTAVDTAVYYCARLDYWGQGTLVTVSSASTKGPSVFPLAPSSKSTSGGTAALGCLVKDYFPEPVTVSWNSGALTSGVHTFPAVLQSSGLYSLSSVVTVPSSSLGTQTYICNVNHKPSNTKVDKKVEPKSCDKTHTCPPCPAPEAAGGPSVFLFPPKPKDTLMISRTPEVTCVVVDVSHEDPEVKFNWYVDGVEVHNAKTKPREEQYNSTYRVVSVLTVLHQDWLNGKEYKCKVSNKALPAPIEKTISKAKGQPREPQVYTLPPSREEMTKNQVSLSCAVKGFYPSDIAVEWESNGQPENNYKTTPPVLDSDGSFFLVSKLTVDKSRWQQGNVFSCSVMHEALHNHYTQKSLSLSPGGGGGQVQLVQSGAEVKKPGASVKVSCKASGYTFTDYHVNWVRQAPGQGLEWIGWIFPGSGRTFYTDKFKGRVTMTVDTSTSTVYMELSSLRSEDTAVYYCATDYGTSGYGLVYWGQGTTVTVSSGGGGSGGGGSGGGGSGGGGSDIQMTQSPSSLSASVGDRVTITCKASDRINNWLAWYQQKPGKAPKLLISGATSLETGVPSRFSGSGSGTDFTLTISSLQPEDEATYYCQQYWNIPFTFGQGTKLTAK
light: B1 light
notes: Asymmetric: knob chain without scFv, hole chain with the 3C2VH6VL5 scFv; also called MBS307-10-1 + MBS307-10-2
B3: anti-CD40 antibody 7B4VH2VL2 (antibody, V domains shown)
VH: QVQLQESGPGLVKPSDTLSLTCAVSGYSITTNYYWNWIRQPPGKGLEWMGYIKYDGSNNYNPSLKNRITISVDTSKNQFSLKLSSVTAVDTAVYYCARLDYWGQGTLVTVSS
VL: DVVLTQSPLSLPVTLGQPASISCRSSQSLENSNGNTFLNWFQQRPGQSPRLLIYKVSNRFSGVPDRFSGSGSGTDFTLKISRVEAEDVGVYYCLQVTHVPFTFGQGTKLEIK
notes: also called the monospecific anti-CD40 antibody; 714VH2VL2 [sic]
B4: MBS307-7 (bispecific antibody, human IgG1, kappa, L234A L235A)
heavy: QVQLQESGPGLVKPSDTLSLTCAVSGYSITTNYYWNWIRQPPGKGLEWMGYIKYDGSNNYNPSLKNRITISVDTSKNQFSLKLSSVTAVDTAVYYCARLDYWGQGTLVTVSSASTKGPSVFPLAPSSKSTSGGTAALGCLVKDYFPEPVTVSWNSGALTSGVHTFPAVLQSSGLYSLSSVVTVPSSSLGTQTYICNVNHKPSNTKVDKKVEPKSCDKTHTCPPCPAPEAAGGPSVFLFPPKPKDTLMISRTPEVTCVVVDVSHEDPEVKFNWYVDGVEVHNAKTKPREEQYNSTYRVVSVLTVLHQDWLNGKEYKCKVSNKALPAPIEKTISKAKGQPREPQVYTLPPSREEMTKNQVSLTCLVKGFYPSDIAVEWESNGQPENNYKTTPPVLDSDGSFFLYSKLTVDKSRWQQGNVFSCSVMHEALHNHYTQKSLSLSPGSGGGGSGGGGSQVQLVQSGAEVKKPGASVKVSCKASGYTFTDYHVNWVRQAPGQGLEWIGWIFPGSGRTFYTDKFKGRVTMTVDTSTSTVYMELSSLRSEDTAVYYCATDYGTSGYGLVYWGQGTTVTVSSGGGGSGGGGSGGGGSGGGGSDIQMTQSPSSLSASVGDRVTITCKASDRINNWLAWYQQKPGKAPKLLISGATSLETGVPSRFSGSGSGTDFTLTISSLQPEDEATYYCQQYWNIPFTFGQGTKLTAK
light: B1 light
notes: Symmetric: full-length anti-CD40 antibody with the anti-PD-L1 scFv of 3C2VH6VL5 on each heavy chain

Key:
[1] = target: T1, human CD40 on HEK293A/human CD40 cells (human, UniProt P25942 21-277); assay: cell-based or functional assay
[2] = target: T2, human PD-L1 on HEK293A/human PD-L1 cells (human, UniProt Q9NZQ7 19-290); assay: FACS blocking assay on HEK293A/human PD-L1 cells; blocked ligand PD-1-Fc
T2 sequence (Q9NZQ7 19-290 limits assumed): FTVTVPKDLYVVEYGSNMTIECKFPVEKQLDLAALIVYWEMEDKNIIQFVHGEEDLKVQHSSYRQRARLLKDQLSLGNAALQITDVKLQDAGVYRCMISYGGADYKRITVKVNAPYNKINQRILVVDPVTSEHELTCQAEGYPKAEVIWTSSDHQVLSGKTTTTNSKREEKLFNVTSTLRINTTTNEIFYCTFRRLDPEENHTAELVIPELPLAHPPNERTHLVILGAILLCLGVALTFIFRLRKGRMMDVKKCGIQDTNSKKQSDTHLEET
Procedure: The bispecific antibodies were tested for their blocking activity on PD-1-PD-L1 binding by FACS using the HEK293A cells stably expressing human PD-L1 molecules as prepared in Example 1. Briefly, a 96-well plate was seeded with 10⁵ HEK293A/human PD-L1 cells in 100 μl cell culture medium, and then added with 50 μl serially diluted anti-PD-L1 antibody 56E5VH5VL4 or MBS307-3 molecules. After incubation at 4° C. for 1 h. the plate was washed with PBST for 3 times, added with 100 μl 200 μg/ml PD-1-Fc fusion proteins (Cat #:10377-10211, Sino Biological, CN), incubated at 4° C. for 1 h, washed with PBST for 3 times, and added with 1:500 diluted PE-goat anti-human IgG (Cat #:PAI-86078, Thermofisher, USA). After incubation at 4° C. for 1 h, the plate was washed with PBST for 3 times and measured for fluorescence using a FACS machine (BD).
Following the protocol of Example 7, the bi- or multi-specific antibodies were tested for their capability to block PD-1-PD-L1 binding by FACS, using the HEK293A cells prepared in Example 1 that stably expressed human PD-L1 molecules.

[3] = target: T2, human PD-L1 on HEK293A/human PD-L1 cells; assay: FACS on HEK293A/human PD-L1 cells
Procedure: (§1) The bispecific antibodies as prepared above were tested for their binding capability to cell surface human, monkey and mouse CD40 proteins by FACS, using the HEK293A cells prepared in Example 1 that stably expressed human, monkey or mouse CD40. Briefly, a 96-well plate was seeded with 10⁵ HEK293A cells in 50 μl PBS, and then added with 100 μl serially diluted anti-CD40 antibody 714VH2VL2 and the bispecific antibodies of the disclosure (starting concentration at 40 μg/ml). After incubation at 4° C. for 1 h, the plate was washed by PBST for 3 times. The plate was added with 1:500 diluted APC-goat anti-mouse IgG (Cat #:405308, BioLegen, USA), incubated at 4° for 1 h, washed with PBS for 3 times, and subjected to fluorescence measurement in a FACS machine (BD).
(§2) Following the protocols in Example 4 and Example 5, the bi- or multi-specific antibodies of the disclosure were tested for their binding capability to human PD-L1 and human CD40 proteins by FACS using the HEK293A cells prepared in Example 1 that stably expressed human PD-L1 or human CD40.

[4] = target: T1, human CD40 on HEK293A/human CD40 cells; assay: FACS on HEK293A/human CD40 cells
Procedure: as §1, §2

human CD40-his protein = target: T3, human CD40-his protein (human, UniProt P25942 21-193); assay: SPR (BIAcore 8K), human CD40-his coupled to CM5 chip, antibody injected
T3 construct: Bought protein; also called human CD40 protein; CD40 molecules; not shown: his tag
Excerpt: (§3) Using BIAcore™ 8K instrument (GE Life Sciences, US), the binding affinity of the bi- or multi-specific antibodies to human CD40 and PD-L1 was quantitatively measured. Briefly, 100-200 response units (RU) of human CD40-his protein (Cat #:10774-1108H, Sino Biological, CN) or human PD-L1-his protein (Cat #:10084-H08H, Sino Biological, CN) were coupled to CM5 biosensor chips (Cat #:BR-1005-30, GE Life Sciences. USA). The un-reacted groups were then blocked with 1 M ethanolamine. Serially diluted antibodies at concentrations ranging from 0.3 μM to 10 μM were injected into the SPR running buffer (HBS-EP buffer, pH7.4, Cat #:BR-1006-69, GE Life Sciences, USA) at 30 μL/min. The binding affinity was calculated with the RUs of blank controls subtracted, and the association rate (kₐ) and dissociation rate (kd) were determined using the one-to-one Langmuir binding model (BIA Evaluation Software, GE Life Sciences, USA). The equilibrium dissociation constant KD was calculated as the kd/kₐ ratio.

human PD-L1-his protein = target: T4, human PD-L1-his protein (human, UniProt Q9NZQ7 19-238); assay: SPR (BIAcore 8K), human PD-L1-his coupled to CM5 chip, antibody injected
T4 construct: extracellular domain; also called human PD-L1 (ECD)-his; human PD-L1 protein; not shown: his tag
T4 sequence (Q9NZQ7 19-238): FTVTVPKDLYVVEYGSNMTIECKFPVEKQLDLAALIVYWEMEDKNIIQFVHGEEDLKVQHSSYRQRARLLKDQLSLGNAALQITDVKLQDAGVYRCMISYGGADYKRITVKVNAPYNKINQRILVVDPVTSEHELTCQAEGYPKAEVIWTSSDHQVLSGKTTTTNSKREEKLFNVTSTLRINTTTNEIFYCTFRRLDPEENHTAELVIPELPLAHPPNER
Excerpt: as §3

[5] = target: T1, human CD40 on HEK293A/human CD40 cells; assay: FACS on HEK293A/human CD40 cells; remark: listed apart in the source
Procedure: as §1, §2

[6] = target: T1, human CD40 on HEK293A/human CD40 cells; assay: cell-based or functional assay; remark: listed apart in the source
[7] = target: T1, human CD40 on HEK293A/human CD40 cells; assay: FACS on HEK293A/human CD40 cells; remark: listed apart in the source
Procedure: as §1, §2

[8] = target: T5, monkey CD40 on HEK293A/monkey CD40 cells (monkey, UniProt P25942 21-277 (human entry)); assay: FACS on HEK293A/monkey CD40 cells
T5 chain: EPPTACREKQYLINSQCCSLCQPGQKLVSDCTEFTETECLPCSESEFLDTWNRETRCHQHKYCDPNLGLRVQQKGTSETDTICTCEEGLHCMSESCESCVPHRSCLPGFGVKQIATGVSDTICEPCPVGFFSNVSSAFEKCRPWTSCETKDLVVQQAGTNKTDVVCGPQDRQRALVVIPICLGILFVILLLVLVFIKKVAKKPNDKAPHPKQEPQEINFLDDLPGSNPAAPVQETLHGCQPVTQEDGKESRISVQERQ
Procedure: as §1

[9] = target: T1, human CD40 on HEK293A/human CD40 cells; assay: cell-based or functional assay; remark: listed apart in the source
[10] = target: T1, human CD40 on HEK293A/human CD40 cells; assay: FACS on HEK293A/human CD40 cells; remark: listed apart in the source
Procedure: as §1

Binder | EC50 (read off the curve); HEK-Blue/CD40 reporter, OD630, plate coated with human PD-L1-his [1] | IC50 (read off the curve) [2] | EC50 (read off the curve) [3] | EC50 (read off the curve) [4] | Kd (human CD40-his protein) | Kd (human PD-L1-his protein) | EC50 (read off the curve) [5] | EC50 (read off the curve); HEK-Blue/CD40 reporter, OD630, plate coated with human PD-L1-his [6] | EC50 (read off the curve) [7] | EC50 (read off the curve) [8] | EC50 (read off the curve); HEK-Blue/CD40 reporter, OD630, plate coated with human PD-L1-his [9] | EC50 (read off the curve) [10]
B1 | ~0.02 µg/mL | ~1 µg/mL | ~0.6 µg/mL | ~0.07 µg/mL | 3.11 nM | 42 nM | – | – | – | – | – | –
B2 | ~0.03 µg/mL | – | – | ~0.07 µg/mL | 2.72 nM | 17.7 nM | ~0.02 µg/mL | ~0.05 µg/mL | ~0.04 µg/mL | – | – | –
B3 | ~0.1 µg/mL | – | – | ~0.04 µg/mL | – | – | – | ~0.1 µg/mL | ~0.03 µg/mL | ~0.04 µg/mL | ~0.04 µg/mL | ~0.05 µg/mL
B4 | – | – | – | – | 1.43 nM | 11.9 nM | – | ~0.1 µg/mL | ~0.06 µg/mL | – | – | –
